Reference: PMC10583174

Target: glucagon receptor (GCGR) (mouse (endogenous in primary hepatocytes)) (UniProt Q61606)
Assay: radioligand binding

Sequence of UniProt Q61606 (Q61606 27-485): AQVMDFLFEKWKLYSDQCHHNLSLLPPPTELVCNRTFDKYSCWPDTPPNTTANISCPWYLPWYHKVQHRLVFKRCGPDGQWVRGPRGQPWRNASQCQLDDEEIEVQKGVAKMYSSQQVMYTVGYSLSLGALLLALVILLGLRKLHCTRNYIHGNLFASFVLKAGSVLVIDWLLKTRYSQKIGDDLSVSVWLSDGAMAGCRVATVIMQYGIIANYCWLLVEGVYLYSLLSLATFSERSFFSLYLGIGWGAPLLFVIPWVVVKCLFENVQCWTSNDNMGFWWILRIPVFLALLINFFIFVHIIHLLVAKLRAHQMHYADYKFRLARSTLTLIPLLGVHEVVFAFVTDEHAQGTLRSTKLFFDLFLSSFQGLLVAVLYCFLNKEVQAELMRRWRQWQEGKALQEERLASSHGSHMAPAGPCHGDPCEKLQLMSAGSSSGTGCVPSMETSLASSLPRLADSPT

fold Kd, GNE LKO over GNE WT hepatocytes: 10 fold
Substance: glucagon (human) (peptide)
